For assay [1], the target named is T1, aerolysin pore (activated aerolysin in a planar lipid bilayer) (UniProt P09167 24-445). Put plainly: single-channel nanopore current recording.
Assay [2] deals with T1, aerolysin pore (activated aerolysin in …). Put plainly: single-channel nanopore current recording. This is another data set of the same source.

Where two headings read alike, the source gives them in different places.

This passage reports kon results from article PMC4296922 (ACS Applied Materials & Interfaces, 2014).

T1 sequence (P09167 24-445): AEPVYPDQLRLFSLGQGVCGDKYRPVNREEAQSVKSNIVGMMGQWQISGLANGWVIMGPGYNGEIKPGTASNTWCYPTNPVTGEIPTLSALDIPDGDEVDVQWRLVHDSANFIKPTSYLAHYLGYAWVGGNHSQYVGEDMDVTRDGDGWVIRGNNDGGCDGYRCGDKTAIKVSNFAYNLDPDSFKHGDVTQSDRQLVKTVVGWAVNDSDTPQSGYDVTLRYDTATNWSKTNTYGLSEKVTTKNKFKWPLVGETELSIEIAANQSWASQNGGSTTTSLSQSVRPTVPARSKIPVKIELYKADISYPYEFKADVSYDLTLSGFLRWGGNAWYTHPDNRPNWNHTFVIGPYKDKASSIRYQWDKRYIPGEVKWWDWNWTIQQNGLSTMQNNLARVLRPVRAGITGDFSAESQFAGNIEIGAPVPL

B1: synthetic peptide Sb2(76-93)s (peptide)
peptide: QFETSAAKLKRKYWWKNL
For the molecule B1, the kon was 8.1e+07 M⁻¹ s⁻¹ in assay [1] and 8.7e+06 M⁻¹ s⁻¹ in assay [2].
